No end group written: not given here. Alexa Fluor 488 C5‑maleimide = fluorescent dye linked to the Cys thiol through maleimide
How the values were obtained:
[1] = molecular target: T1, annexin 1 (Anxa1) expressed on mouse endothelial cells (F-2 cells; tumor vasculature in mice) (mouse, UniProt P10107 2-346); assay: in vivo phage targeting in B16 tumor-bearing mice pre-injected with control rabbit IgG or anti-Anxa1 antibody; colonies recovered from tissue homogenates
T1 construct: whole, on cells; Endogenous protein on cells; also called Anxa1 expressed on the endothelial cell surface
T1 sequence (looked up): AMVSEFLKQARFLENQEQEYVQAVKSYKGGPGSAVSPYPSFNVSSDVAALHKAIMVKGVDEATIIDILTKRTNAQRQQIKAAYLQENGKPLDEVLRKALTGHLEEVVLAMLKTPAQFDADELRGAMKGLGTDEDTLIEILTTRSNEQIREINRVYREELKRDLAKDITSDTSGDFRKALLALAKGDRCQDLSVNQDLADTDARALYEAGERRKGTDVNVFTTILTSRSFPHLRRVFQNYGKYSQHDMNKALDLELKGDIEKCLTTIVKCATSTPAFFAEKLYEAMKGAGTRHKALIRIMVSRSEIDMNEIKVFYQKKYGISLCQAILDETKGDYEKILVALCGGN
Text: FIGS. 1A-1H show the essential role of annexin 1 (Anxa1) in tumor growth and identification of a peptide sequence with tumor vasculature targeting activity in vivo. A and B. Growth of B16 tumors subcutaneously injected into Anxa1(+/−) and Anxa1(−/−) mutant mice. C. Histology of B16 tumors produced in Anxa1(+/−) and Anxa1(−/−) mice. Each scale bar represents 2.00 mm. D. Immunohistochemistry of B16 tumors for CD31 showing endothelial cells and vasculature. Each scale bar represents 200 μm. E. In vivo phage targeting in B16 tumor-bearing mice. Numbers of transformed colonies recovered from the tumor or lung were determined. […] F. In vivo tumor and organ targeting activity of IFLLWQR (SEQ ID NO:2) displaying phage. Phage was injected into B16 tumor bearing mice pre-injected with anti-Anxa1 antibody or with control rabbit IgG. G. In vitro plate assay for binding of IF7-A488 (upper line) and control RQ7-A488C (lower line) to recombinant […] protein produced by bacteria. H. Effect of IF7 (upper line) and control RQ7 (lower line) on binding of FITC-labeled polyacrylamide-LeA oligosaccharide to Anxa1-His₆ protein.
Mouse melanoma B16F1 cells (2×10⁵ cells/100 μl PBS) were injected subcutaneously into the dorsal flank of C57BL/6 female mice (8-10 weeks old). […] Colonies appearing on an agar plate after culturing at 37° C. for 20 hours were counted.

[2] = molecular target: T1, annexin 1 (Anxa1) expressed on mouse …; assay: intravital fluorescence of LLC tumors in a dorsal skinfold chamber after intravenous injection; signal intensity over time, with or without pre-injected rabbit IgG or anti-Anxa1 antibody
Procedure: (A) Lewis lung carcinoma (LLC) tumors were allowed to vascularize for 3 days in dorsal skinfold chamber window in nude mice. Mice were injected with 100 μl of 50 μM IF7-A488 (row a) or RQ7-A488 (row b) in 5% glucose in water. IF7-A488 was also injected to tumor-bearing mice pre-injected with rabbit IgG (row c) or with rabbit anti-Anxa1 antibody (row d). Fluorescence signals were monitored under a fluorescence microscope up to 40 min post-injection. From left: bright field before injection, and fluorescence at 0, 5, 20 min after injection. Far right, the boundary of tumor and stroma at 20 min (Scale bar=500 μm). (B) Quantitative analysis of fluorescence during the course of the analysis shown in A. The line with the highest signal at 10 minutes represents IF&-A488. The line with the second highest signal at 10 minutes represents the control IgG. […] Intensity of fluorescence was determined by Image J program. […] (C) Fluorescence micrographs of tumor sections 20 min after injection with IF7-A488 and RQ7-A488. […] IF7-A488 signals (upper row) were detected on endothelial cells of tumor vasculature (Scale bar=50 μm), while no RQ7-A488 signal was detected (lower row). […] Arrows indicate fluorescence. (D) Fluorescence remained in circulation in mice with or without subcutaneous B16 tumors. IF7-A488 was injected intravenously through the tail vein, and fluorescence remaining in circulation was measured. […]

[3] = molecular target: recombinant Anxa1-His6 protein; assay: isothermal titration calorimetry, peptide injected into Anxa1-His protein, 23° C.; average over two Anxa1-His preparations
[4] = molecular target: T1, annexin 1 (Anxa1) expressed on mouse …; assay: intravital fluorescence of LLC tumors in a dorsal skinfold chamber after intravenous injection; signal intensity over time
Procedure: The line with the lowest signal at 10 minutes represents RQ7-A488. Intensity of fluorescence was determined by Image J program. Error bars represent SD (n=3). Asterisks show statistical significance or p<0.0001, t test. (C) Fluorescence micrographs of tumor sections 20 min after injection with IF7-A488 and RQ7-A488. From left: IF7-A488, DAPI, merged, and bright field. IF7-A488 signals (upper row) were detected on endothelial cells of tumor vasculature (Scale bar=50 μm), while no RQ7-A488 signal was detected (lower row). Experiments were repeated 3 times, and representative results are shown. Arrows indicate fluorescence. (D) Fluorescence remained in circulation in mice with or without subcutaneous B16 tumors. IF7-A488 was injected intravenously through the tail vein, and fluorescence remaining in circulation was measured. […]
A Lewis lung carcinoma (LLC) tumor was produced in a donor nude mouse by subcutaneous injection, and small piece of tumor (less than 1 mm³) was transplanted to a dorsal skinfold chamber in a recipient nude mouse (8-10 weeks female Balb/c nude) as described (Lehr et al., Am J Pathol 1993; 143:1055-62; Oh et al., Nat Biotechnol 2007; 25:327-37). […] Signal intensity in the tumor from 0 min to 40 min was measured by Image J (NIH, Maryland). After 10 min, irradiation of specimens by a UV lamp was limited only to times when photos were taken to avoid fluorescence bleaching. […]

[5] = molecular target: T1, annexin 1 (Anxa1) expressed on mouse …; assay: fluorescence microscopy of mouse endothelial F-2 cells cultured in vitro
Procedure: F-2 cells cultured on a filter of trans well insert was added with IF7C(RR)-conjugated FITC-poly-L-lysine to allow the reagent being bound to apical cell surface of F-2 cells. After washing the monolayer with medium, insert was placed in wells containing medium at 37° C. or at 4° C. Fluorescence moved to the lower chamber of insert was measured. C. Targeting and penetration of intravenously injected IF7C(RR)-conjugated FITC-poly-L-lysine in the B16 tumor in vivo in the mouse. Tissue section was immunostained for endothelial cell marker CD31.
Since IF7-SN38 is highly hydrophobic, there was a concern regarding a possibility that IF7-SN38 becomes insoluble after intravenous injection. Such may reduce the activity of IF7-SN38 in vivo. To increase the solubility of IF7-SN38 in aqueous environment, two arginine residues were added to IF7 after the cysteine residue. Thus IFLLWQR-C-RR (SEQ ID NO:17) or IF7C(RR) was synthesized. When IF7C(RR) was conjugated to FITC-poly-L-lysine, IF7C(RR)-conjugated FITC-poly-L-lysine bound to the surface of Anxa1-expressing mouse endothelial F-2 cells (FIG. 12A). […] When IF7C(RR)-conjugated FITC-poly-L-lysine was added to F-2 cells grown on a filter of the insert for trans well chamber, washed and then incubated in a medium at 37° C. or at 4° C., fluorescence migrated to the lower chamber from cells incubated at 37° C. but not at 4° C. […]

Binder: IFLLWQR (peptide, not shown: large carriers, also called IF7 phage; clone #2) [IFLLWQR (SEQ ID NO:2) displaying phage]
- binding result [1]: binds

Binder: IFLLWQRC(Alexa Fluor 488 C5‑maleimide) (Synthetic peptide (GenScript)) [IF7-A488 (chemically synthesized IF7 conjugated with fluorescent Alexa 488)]
- binding result [2]: binds

Binder: IFLLWQRKKKC [IF7K3C peptide (…)]
- Kd [3]: 11 µM

Binder: RQWLLFI (also: Alexa 488 conjugated, site of attachment not given here, also called RQ7-A488C; control RQ7-A488) [RQ7-A488 (Alexa 488 conjugated with RQWLLFI or reverse IF7)]
- binding result [4]: no binding

B1: IF7C(RR)-conjugated FITC-poly-L-lysine (peptide, not shown: large carriers)
peptide: IFLLWQRCRR
modifications: also: conjugated to FITC-poly-L-lysine, site and chemistry not given here
notes: Polymer conjugate; also called IF7C(RR)-conjugated FITC-polylysine; IF7C(RR)-conjugated FITC-poly-lysine
- binding result [5]: binds

From patent US20120251453A1 (SANFORD BURNHAM MEDICAL RESEARCH INSTITUTE, published 2012)
